According to US20240116985A1 (published 2024):
Starred links: 1 amine or outer side, 2 acyl side, 3 side chain; linkers in the order of their positions; H or OH if unused. Positions of bridges follow the written chain, without caps; N, C: chain ends. Non-standard residues stand in square brackets, D forms with d. Primed or numbered codes have the meaning given here. PyrS2″ = (S)-3-amino-1-((pent-4-en-1-yloxy)carbonyl)pyrrolidine-3-carboxylic acid (stapling residue), C=CCCCOC(=O)N1CC[C@@](N[*:1])(C(=O)[*:2])C1; B5(4) = 2,2-bis(4-pentenyl)glycine = 2-amino-2-(pent-4-en-1-yl)hept-6-enoic acid (stitching residue), C=CCCCC(CCCC=C)(N[*:1])C(=O)[*:2]; MePpzAsn = (S)-2-amino-4-(4-methylpiperazin-1-yl)-4-oxobutanoic acid, CN1CCN(C(=O)C[C@H](N[*:1])C(=O)[*:2])CC1; B5(3) = 2,2-bis(4-pentenyl)glycine (stitching residue), C=CCCCC(CCCC=C)(N[*:1])C(=O)[*:2]; Phe(3-COOH) = N[C@@H](Cc1cccc(C(=O)O)c1)C(=O)O; 2F3MeF = Cc1cccc(C[C@H](N[*:1])C(=O)[*:2])c1F; Bta = N[C@@H](Cc1csc2ccccc12)C(=O)O; αAllylPro = C=CC[C@@]1(C(=O)O)CCCN1; tBuAla = CC(C)(C)C[C@H](N)C(=O)O; S8 = C=CCCCCCC[C@](C)(N)C(=O)O

T1: B-cat-Halo (UniProt P35222 1-781)
T1 sequence (looked up): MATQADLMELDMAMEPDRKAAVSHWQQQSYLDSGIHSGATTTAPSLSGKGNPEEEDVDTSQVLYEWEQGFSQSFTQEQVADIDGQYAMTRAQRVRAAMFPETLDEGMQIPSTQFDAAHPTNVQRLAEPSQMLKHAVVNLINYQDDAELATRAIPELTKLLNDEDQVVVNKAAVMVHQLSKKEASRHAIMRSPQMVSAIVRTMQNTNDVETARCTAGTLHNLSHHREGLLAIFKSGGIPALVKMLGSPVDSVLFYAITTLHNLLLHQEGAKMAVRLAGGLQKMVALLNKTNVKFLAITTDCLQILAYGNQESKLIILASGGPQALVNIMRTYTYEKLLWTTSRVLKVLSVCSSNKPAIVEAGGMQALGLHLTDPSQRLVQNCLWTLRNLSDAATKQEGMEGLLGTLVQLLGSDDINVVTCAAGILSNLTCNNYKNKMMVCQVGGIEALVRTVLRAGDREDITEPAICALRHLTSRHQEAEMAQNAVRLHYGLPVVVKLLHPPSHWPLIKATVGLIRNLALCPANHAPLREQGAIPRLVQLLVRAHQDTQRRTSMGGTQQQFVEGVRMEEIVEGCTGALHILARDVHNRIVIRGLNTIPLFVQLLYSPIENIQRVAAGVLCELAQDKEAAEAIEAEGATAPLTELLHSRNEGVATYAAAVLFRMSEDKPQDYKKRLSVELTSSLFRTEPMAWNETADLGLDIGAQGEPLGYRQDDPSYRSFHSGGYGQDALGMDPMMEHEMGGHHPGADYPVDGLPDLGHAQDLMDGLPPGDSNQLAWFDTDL

T2: beta-catenin (endogenous, DLD1 TCF/LEF luciferase reporter cells) (UniProt P35222 1-781)
T2 sequence (looked up): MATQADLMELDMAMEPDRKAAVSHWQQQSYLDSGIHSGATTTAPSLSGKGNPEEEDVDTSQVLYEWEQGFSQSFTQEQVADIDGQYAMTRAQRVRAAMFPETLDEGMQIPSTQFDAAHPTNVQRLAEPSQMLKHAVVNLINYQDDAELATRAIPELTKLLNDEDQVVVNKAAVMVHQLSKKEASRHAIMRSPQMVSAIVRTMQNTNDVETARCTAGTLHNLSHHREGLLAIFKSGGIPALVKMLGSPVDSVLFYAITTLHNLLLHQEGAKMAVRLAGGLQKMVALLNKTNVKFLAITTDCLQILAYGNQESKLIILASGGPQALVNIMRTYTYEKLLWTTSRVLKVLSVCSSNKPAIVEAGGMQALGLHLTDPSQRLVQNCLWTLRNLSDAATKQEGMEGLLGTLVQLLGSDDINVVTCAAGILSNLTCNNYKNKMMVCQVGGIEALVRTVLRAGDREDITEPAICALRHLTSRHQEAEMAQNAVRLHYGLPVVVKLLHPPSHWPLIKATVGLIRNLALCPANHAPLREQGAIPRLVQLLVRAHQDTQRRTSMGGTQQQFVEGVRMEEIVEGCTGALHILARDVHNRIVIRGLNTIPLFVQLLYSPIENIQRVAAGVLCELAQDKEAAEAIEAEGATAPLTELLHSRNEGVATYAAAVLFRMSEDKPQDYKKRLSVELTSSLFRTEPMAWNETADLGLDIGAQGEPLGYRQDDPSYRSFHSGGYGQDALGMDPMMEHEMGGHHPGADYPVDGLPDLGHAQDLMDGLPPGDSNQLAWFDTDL

T3: full-length beta-Catenin (Uniprot ID P35222) (Homo sapiens (Human), UniProt P35222 1-781)
T3 construct: The assay text says 'full-length beta-Catenin (Uniprot ID P35222)'; No tags are stated for the FP assay; also called bCat; B-Catenin
T3 sequence: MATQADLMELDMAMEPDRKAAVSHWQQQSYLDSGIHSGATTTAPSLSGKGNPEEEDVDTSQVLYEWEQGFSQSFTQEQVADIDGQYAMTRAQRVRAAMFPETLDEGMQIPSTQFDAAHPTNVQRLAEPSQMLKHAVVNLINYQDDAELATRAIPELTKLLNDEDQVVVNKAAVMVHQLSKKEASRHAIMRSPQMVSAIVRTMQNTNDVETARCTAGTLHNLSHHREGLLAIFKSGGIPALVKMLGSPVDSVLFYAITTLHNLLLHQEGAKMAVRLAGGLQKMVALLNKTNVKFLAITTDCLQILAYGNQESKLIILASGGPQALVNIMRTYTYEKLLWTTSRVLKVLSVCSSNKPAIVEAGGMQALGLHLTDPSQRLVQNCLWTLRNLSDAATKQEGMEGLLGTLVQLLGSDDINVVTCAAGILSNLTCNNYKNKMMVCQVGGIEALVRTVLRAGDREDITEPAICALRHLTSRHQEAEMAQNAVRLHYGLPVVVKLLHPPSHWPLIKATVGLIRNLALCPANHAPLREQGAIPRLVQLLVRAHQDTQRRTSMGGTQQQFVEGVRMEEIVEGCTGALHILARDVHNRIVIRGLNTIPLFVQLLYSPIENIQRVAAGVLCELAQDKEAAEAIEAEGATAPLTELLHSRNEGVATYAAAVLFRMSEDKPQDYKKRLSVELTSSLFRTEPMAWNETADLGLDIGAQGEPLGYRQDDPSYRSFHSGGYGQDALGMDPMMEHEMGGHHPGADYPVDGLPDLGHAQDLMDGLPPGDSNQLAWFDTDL


Experiments:
[1] = molecular target: T1, B-cat-Halo; assay: cell-based or functional assay
[2] = molecular target: T2, beta-catenin (endogenous, DLD1 TCF/LEF …); assay: cell-based or functional assay
[3] = molecular target: T3, full-length beta-Catenin (Uniprot ID …); assay: fluorescence polarization competition; 10 nM full-length beta-catenin with 10 nM 5FAM-labeled TCF4 (residues 10-53) probe as competitor
Method: The plate was incubated protected from light for 60 minutes at 20° C. prior to read. Reads were performed on a CLARIOstar plate reader (BMG Labtech) in duplicate, and data were fitted to a 1:1 binding model with hill slope using an in-house script. All provided concentrations are final concentrations.

| NanoBRET Abs IC50 [1] [µM] | DLD1 4% Abs IC50 [2] [µM] | IC50 [3] [nM] | Binder |
| --- | --- | --- | --- |
| 5.3 | 4 |  | Ac-[αAllylPro]D[tBuAla][B5(3)]D[Phe(3-COOH)]AAFL[PyrS2″][2F3MeF][Bta][MePpzAsn]-NH2 (staple 1-4, 4-11) [I-1612] |
|  |  | 1960 | Ac-[αAllylPro]DA[B5(4)]DEAAXV[S8]FWQ-NH2 (staple 1-4, 4-11; not fully specified (residue 9); printed as Ac-PL3-Asp-Ala-B5-Asp-Glu-Ala-Ala-MeTyr-Val-S8-Phe-Trp-Gln-NH2, Stapled (stitched) peptide; also called Ac-PL3-Asp-Ala-B5-Asp-Glu-Ala-Ala-MeTyr-Val-S8-Phe-Trp-Gln-NH2) [I-217] |
